Reference: patent US8551951B2, “Pharmaceutical preparations and methods for inhibiting tumors” (Aenorasis SA Pharmaceuticals and Medical Devices, priority 2000, dated 2013)
Several values for one entry are separate records, joined by “and”; a condition that tells them apart may be missing. Equal values may be shown once.

Experiments:
[1] = system: human prostate cancer cells PC-3; experiment: MTS assay, growth inhibitory effect on PC-3 cells; format: cell-based; details: for % Viability (control = 100%): 72 hours
Description: Cell proliferation was monitored on PC-3 cells using the MTS/PMS (phenazine methosulfate) kit (Promega), which primarily measures mitochondrial activity of live cells. The basic principle of this method involves the fact that the mitochondrial enzymes of the live cells metabolize the MTS/PMS dyes forming a brown colored precipitate which can be measured as optical density (OD) by absorption at 490 nm in a spectrophotometer. Therefore, the OD values are proportional to the number of living cells. In addition, monitoring of cell morphology was also performed. Cell morphology would be indicative of their health status. For example, viable cells would appear adherent and spread out whereas dead cells would be in suspension in the media and would appear granular and round.
PC-3 cells (ATCC, Lot AT06) used in these experiments were at a passage number lower or equal to 70 (n≧70). Cells were seeded in Costar 96 well cell culture flat bottom plates in RPMI supplemented media containing 50 μg/ml of bovine serum albumin (BSA) and 0.1 μM FeSO4. Peptide was diluted in the same media. Cells were continuously exposed to the polypeptides of the present invention for 72 hours without changing media. Native PSP94 or rHuPSP94 concentrated two fold were directly added to wells and diluted to 1× in order to minimize cell manipulation and avoid detachment.
Native PSP94, rHuPSP94, polypeptide 22-36 and PB111 polypeptide (scrambled polypeptide) were also included in this experiment as controls. Cell proliferation assay was performed on either PC-3 cells or normal fibroblasts (used here as control) using the MTS/PMS kit (Promega). Four thousand cells (FIGS. 9 and 10) or three thousand (FIG. 11) cells were seeded in Costar 96 well cell culture flat bottom plates in RPMI supplemented media containing 50 μg/ml of bovine serum albumin (BSA) and 0.1 μM FeSO4. In addition, monitoring of cell morphology was also performed.
This assay measures the mitochondrial activity of the live cells. The basic principle of this method involves the fact that the mitochondrial enzymes of the live cells metabolize the MTS/PMS dyes forming a brown colored precipitate which can be measured as optical density (OD) by absorption at 490 nm in a spectrophotometer. Therefore, the OD values are proportional to the number of living cells.
In addition, a visual observation of the cells was also done to check the cell morphology, which could also be indicative of cell growth. The following conditions for MTS assay were used: PC-3 (ATCC, Lot AT06), passage number n≧70, cell line adapted to grow in serum-free OPTI-MEM and in RPMI supplemented with BSA (50 μg/ml) and Ferrous Sulfate (0.1 μM), continuous exposure for up to 72 hours without changing media (i.e., adding PCK3145 at 2× concentration directly to wells and diluting it 1:2 to 1× to minimize cell manipulation and avoid detachment).

PC-3 cells [2] = experiment: [^3H]-Thymidine uptake assay; format: cell-based, human; details: for ^3[H]-Thymidine Uptake (% of control): 72 hours
Description: The in vitro growth inhibition effect of rHuPSP94 was assessed using [^3H]-Thymidine uptake assay. [^3H]-Thymidine uptake assay involves [^3H]-Thymidine incorporation into cellular DNA of actively proliferating cells. It measures the proliferative index of the cells versus the MTS assay, which quantifies the number of lived cells following treatment. Cells were seeded in Costar 96 well cell culture flat bottom plates in RPMI supplemented media containing 50 μg/ml of bovine serum albumin (BSA) and 0.1 μM FeSO4. PC-3 cells were exposed to various concentrations of rHuPSP94 for 72 hours and during the final 16 hours of incubation cells were pulsed with 1 μCi of [^3H]-Thymidine. The radioactivity in each well of the plate is counted by a beta-counter and is expressed as total counts per minutes (cpm). Results of in vitro effect of rHuPSP94 on PC-3 cells using the ^3[H]-Thymidine uptake assay are summarized in Table 3 and are expressed as percentage of radioactivity measured for treated-cells relative to the radioactivity measured for non-treated cells (for which [^3H]-thymidine uptake value was set at 100%).
[^3H]-Thymidine uptake assay involves [^3H]-Thymidine incorporation into cellular DNA of actively proliferating cells. [^3H]-Thymidine uptake assay measures the proliferative index of the cells versus the MTS assay, which quantifies the number of lived cells following treatment. The anti-proliferative effects of PCK3145 and two other synthetic polypeptides derived from the amino and carboxy terminus ends of PSP94 (SEQ ID NO: 4 and NO: 6, respectively) as well as the decapeptide (SEQ ID NO: 3) previously shown to mimic the biological action of native PSP94 were assessed in [H3]-Thymidine uptake assay on PC-3 cells. Two separate experiments were conducted with GMP-grade PCK3145.

Mat Ly Lu (MLL) tumor [3] = experiment: Study MLL-1, Mat LyLu tumor implanted in nude mice; format: in vivo; details: 1 μg/kg/day s.c.; p=0.042
Description: (§1) Studies MLL-1 and MLL-2 were performed as follows; on day 0, male Copenhagen rats were injected subcutaneously with 5×10^5 Mat LyLu cells per rat. These cells were derived from cultures of Mat LyLu cell line grown in RPMI media containing 10% (v/v) of fetal calf serum in logarithmic phase of growth. Cells were harvested from the culture flasks by trypsinization, were centrifuged at 1200 rotation per minute (rpm) and washed three timed with Hanks balanced salt solution (HBSS). Following washing, cells were counted and adjusted to a concentration of 5×10^6 cells/ml in HBSS. A 0.1 ml volume of tumor cell inoculum containing 5×10^5 cells was administered subcutaneously into the flank region of each rat. Three days after tumor cell implantation (i.e., inoculation), animals were treated daily by a subcutaneous injection of the desired polypeptide until day 13.
Experiments illustrated in FIG. 12 show the anti-tumor efficacy validation of rHuPSP94 against Mat LyLu (MLL) tumor implanted in nude mice (Protocol based on S. Garde et al.; The Prostate, 22: 225-233, 1993).
For study MLL-1 (FIG. 12), tumor-implanted nude mice were separated in different groups, each receiving various amount of rHuPSP94 or control reagents. The different groups used in these experiments are illustrated below. Each group contained 8 mice.

Mat Ly Lu (MLL) tumor [4] = experiment: Study MLL-2, Mat Ly Lu tumor implanted in SCID mice; format: in vivo; details: 1 μg/kg/day s.c.; p=0.010
Description: as §1
Experiments illustrated in study MLL-2 show the anti-tumor efficacy validation of rHuPSP94 against Mat Ly Lu (MLL) tumor implanted in severe combined immunodeficiency (SCID) mice (Protocol based on S. Garde et al.; The Prostate, 22: 225-233, 1993).
For study MLL-2 (FIG. 13), tumor-implanted Scid mice were separated in different groups each receiving various amounts of rHuPSP94 or control reagents. The different groups used in these experiments are illustrated below. Each group contained 8 mice.

[5] = system: PC-3 human prostate tumor; experiment: PC-3 human prostate tumor in nude mice, subcutaneous treatment for 14 days (Examples 10 and 11); format: in vivo, Nude mouse; details: 1 μg/kg body weight per day s.c.
Description: PC-3 human prostate tumor was obtained from ATCC (ATCC 1435). PC-3 cells were grown in RPMI media containing 10% (v/v) of fetal calf serum and were harvested in the logarithmic phase of growth by trypsinization. Cells were centrifuged at 1200 rotation per minute (rpm) and washed three timed with Hanks balanced salt solution (HBSS). Following washing, cells were counted and adjusted to a concentration of 1×10^7 cells/ml in HBSS. A 0.1 ml volume of tumor cell inoculum containing 1×10^6 cells was administered subcutaneously into the two opposite flank region of each Nude mouse (Nu/Nu, BALE/c background). Tumor growth was monitored for approximately 18 days. Once tumor growth has been established (volume of tumor reached a volume of 50 mm^3) treatment with rHuPSP94 (SEQ ID NO: 2) was initiated and was performed once a day for 14 days by the subcutaneous route. Based on the assigned treatment groups illustrated in table 4.
PC-3 human prostate tumor (ATCC 1435) obtained from ATCC was implanted bilaterally into nude mice and tumor growth was monitored for approximately 18 days. PC-3 cells were injected once subcutaneously into each flank of the mice. Once tumor growth has been established (i.e., volume of tumor reached 0.25 to 0.50 cm^3) the treatment with decapeptide (SEQ ID NO: 3), native PSP94 (SEQ ID NO: 1) and control scrambled polypeptide PB111 was initiated and was performed once a day for 14 days by the subcutaneous route based on the treatment groups (randomly assigned) illustrated in table 5.

PC-3 cells [6] = experiment: DNA fragmentation assay (DNA ladder, apoptosis); format: cell-based, human
Description: Cell apoptosis result in DNA fragmentation can be evaluated by the presence of a DNA ladder visualized when DNA is run on a 1.2% agarose gel. DNA ladder assay (apoptosis assay) was performed following exposure of PC-3 to various concentrations of the polypeptides for 72 hours. The polypeptides that were used in this particular experiment are polypeptide 7-21 (SEQ ID NO: 4), polypeptide PCK3145 (SEQ ID NO: 5) and polypeptide 76-94 (SEQ ID NO: 6). […] This effect was especially evident following treatment with PCK3145 (SEQ ID NO: 5), which is illustrated by FIG. 7. Lane 1 of the gel illustrated in FIG. 7 represents a lambda HindIII digest standard.
Apoptosis of PC-3 cells, following a 72 hours exposure to PCK3145 at 500 μg/ml concentration, was evaluated in supplemented media by DNA fragmentation assay. Doxorubicin was used as a reference positive control. Untreated cells and PCK3145-treated cells were harvested and the DNA was isolated. Isolated DNA was run on a 1.2% agarose gel containing Ethidium Bromide (EtBr). […] Lane 1 of the gel illustrated in FIG. 25 represents the DNA marker (100 base pair DNA ladder). Lane 2 of the gel illustrated in FIG. 25 represents a control of untreated PC-3 cells.

tumor cells = details: exogenous PSP94, in vivo and in vitro; cited from earlier work
[7] = system: follicle-stimulating hormone (FSH); details: in-vitro and in-vivo in adult male rats; cited from earlier work

B1: rHuPSP94: recombinant human PSP94 expressed in yeast (Pichia pastoris), non-glycosylated, 10 cysteine residues, SEQ ID NO: 2 (protein)
chain: EAEAYVEFSCYFIPNEGVPGDSTRKCMDLKGNKHPINSEWQTDNCETCTCYETEISCCTLVSTPVGYDKDNCQRIFKKEDCKYIVVEKKDPKKTCSVSEWII
modifications: recombinant human PSP94 (rHuPSP94) produced from yeast
% Viability (control = 100%) ([1]; 5 μg/ml): 98% and 92% and 89% | % Viability (control = 100%) ([1]; 10 μg/ml): 84% and 95% and 69% | % Viability (control = 100%) ([1]; 20 μg/ml): 78% and 80% and 79% | % Viability (control = 100%) ([1]; 40 μg/ml): 100% and 70% and 71% and 68% and 72% and 63% and 95% | % Viability (control = 100%) ([1]; 60 μg/ml): 98% and 78% and 63% and 85% and 52% | reduction in cell numbers (i.e., viability) ([1]; 80 μg/ml): 37% and 35% | % Viability (control = 100%) ([1]; 80 μg/ml): 90% and 55% and 59% and 58% and 63% and 78% and 62% | reduction in cell numbers (i.e., viability) ([1]; 120 μg/ml): 57% | % Viability (control = 100%) ([1]; 120 μg/ml): 52% and 43% and 68% and 60% | ^3[H]-Thymidine Uptake (% of control) (PC-3 cells [2]; 5 μg/ml): 94 % of control | ^3[H]-Thymidine Uptake (% of control) (PC-3 cells [2]; 10 μg/ml): 101 % of control | ^3[H]-Thymidine Uptake (% of control) (PC-3 cells [2]; 20 μg/ml): 98 % of control | ^3[H]-Thymidine Uptake (% of control) (PC-3 cells [2]; 40 μg/ml): 79 % of control | reduction in the percentage of cells incorporating [^3H]-thymidine (PC-3 cells [2]; 80 μg/ml for 72 hrs, compared to non-treated control): 65% | ^3[H]-Thymidine Uptake (% of control) (PC-3 cells [2]; 80 μg/ml): 35 % of control | tumor weight reduction (Mat Ly Lu (MLL) tumor [3]): 26% | tumor weight reduction (Mat Ly Lu (MLL) tumor [4]): 65% | tumor growth (tumor volume) [5]: tumor growth reduction | tumor growth reduction compared with Doxorubicin (5 mg/kg/day) [5]: reduction was similar to that observed for Doxorubicin

B2: native PSP94: Prostate Secretory Protein of 94 amino acids, native human seminal plasma protein, SEQ ID NO: 1 (protein)
chain: SCYFIPNEGVPGDSTRKCMDLKGNKHPINSEWQTDNCETCTCYETEISCCTLVSTPVGYDKDNCQRIFKKEDCKYIVVEKKDPKKTCSVSEWII
^3[H]-Thymidine Uptake (% of control) (PC-3 cells [2]; 5 μg/ml): 97 % of control | ^3[H]-Thymidine Uptake (% of control) (PC-3 cells [2]; 10 μg/ml): 98 % of control | ^3[H]-Thymidine Uptake (% of control) (PC-3 cells [2]; 20 μg/ml): 100 % of control | ^3[H]-Thymidine Uptake (% of control) (PC-3 cells [2]; 40 μg/ml): 98 % of control | ^3[H]-Thymidine Uptake (% of control) (PC-3 cells [2]; 80 μg/ml): 77 % of control | reduction in the [H3]-Thymidine uptake (PC-3 cells [2]; 72 hours exposure (FIG. 24)): ~50% | DNA laddering effect (FIG. 7 lane 4) (PC-3 cells [6]; 20 μg): DNA laddering effect | DNA laddering effect (FIG. 7 lane 3) (PC-3 cells [6]; 40 μg): DNA laddering effect | effect on tumor cell growth (tumor cells): inhibitory effect | secretion of circulating FSH [7]: suppress secretion of
